B1: DFD59: GLP1(GEG)-HyFc40 (Fc fusion)
chain: HGEGTFTSDVSSYLEEQAAKEFIAWLVKGGGEKEKEEQEERETKTPECPSHTQPLGVFLFPPKPKDTLMISRTPEVTCVVVDVSQEDPEVQFNWYVDGVEVHNAKTKPREEQFNSTYRVVSVLTVLHQDWLNGKEYKCKVSNKGLPSSIEKTISKAKGQPREPQVYTLPPSQEEMTKNQVSLTCLVKGFYPSDIAVEWESNGQPENNYKTTPPVLDSDGSFFLYSRLTVDKSRWQEGNVFSCSVMHEALHNHYTQKSLSLSLGK
B2: DFD23 (Fc fusion)
chain: HGEGTFTSDVSSYLEGQAAKEFIAWLVKGRGEKEKEEQEERETKTPECPSHTQPLGVFLFPPKPKDTLMISRTPEVTCVVVDVSQEDPEVQFNWYVDGVEVHNAKTKPREEQFNSTYRVVSVLTVLHQDWLNGKEYKCKVSNKGLPSSIEKTISKAKGQPREPQVYTLPPSQEEMTKNQVSLTCLVKGFYPSDIAVEWESNGQPENNYKTTPPVLDSDGSFFLYSRLTVDKSRWQEGNVFSCSVMHEALHNHYTQKSLSLSLGKGGGGSGGGGSGGGGSHPIPDSSPLLQFGGQVRQRYLYTDDAQQTEAHLEIREDGTVGGAADQSPESLLQLKALKPGVIQILGVKTSRFLCQRPDGALYGSLHFDPEACSFREEIRPDGYNVYQSEAHGLPLHLPGNKSPHRDPAPRGPARFLPLPGLPPALPEPPGILAPQPPDVGSSDPLSMVTGLEAVRSPSYAS

Target: human GLP-1 receptor (human, UniProt P43220 24-463)
Experiment: cell-based or functional assay

| in vitro GLP-1 activity (intracellular cAMP, EC50 compared) | Binder |
| --- | --- |
| ~2 times higher activity than the dual function proteins DFD69, DFD112 and DFD114 | B1 |
| 2 to 3 times lower activity than the dual function proteins with other GLP-1 mutant sequences | B2 |

— patent US20250270269A1 (YUHAN, published 2025)
